Data on 3 molecules can be found in patent publication US20250215070A1.

In general, EC50 refers to the midpoint of the concentration-response curve. A high value points to lower potency in that assay. As a reminder, the Kd is the constant that tells how readily two partners part at equilibrium.

The target of experiment [1] is human Collagen triple helix repeat-containing protein 1 (CTHRC1) (human) (UniProt Q96CG8). Description: binding EC50 on huCTHRC1; method not stated (ELISA named in text). A general note: ELISA stands for enzyme-linked immunosorbent assay.
human Collagen triple helix repeat-containing protein 1 (CTHRC1) (human), sequence (Q96CG8 31-243): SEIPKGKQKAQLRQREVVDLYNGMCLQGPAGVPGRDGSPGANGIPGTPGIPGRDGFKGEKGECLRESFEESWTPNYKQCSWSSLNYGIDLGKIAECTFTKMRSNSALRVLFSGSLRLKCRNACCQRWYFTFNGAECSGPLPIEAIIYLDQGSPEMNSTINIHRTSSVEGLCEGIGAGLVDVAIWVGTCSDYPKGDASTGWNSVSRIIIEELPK
Experiment [2] has the same target. Description: bio-layer interferometry; CTHRC1 species not stated.

B1: CTHRC1S-M11 (antibody, V domains shown)
VH: QVTLRESGPALVKPTQTLTLTCTFSGFSLSTNVMCVSWIRQPPGKALEWLALIDWDDDKYYSTSLKTRLTISKDTSKNQVVLTMTNMDPVDTATYYCARTGITGTHYYYYYMDVWGKGTTVTVSS
VL: AIQMTQSPSSLSASVGDRVTITCRASQGIRNDLGWYQQKPGKAPKLLIYAASSLQSGVPSRFSGSGFGTDFTLTISSLQPEDFATYYCLQDYNYPWTFGQGTKVEIK
The molecule B1 came in with an EC50 in experiment [1] of 9.76 nM. The same molecule came in with a Kd in experiment [2] of 2 nM.

B2: CTHRC1S-M5 (antibody, V domains shown)
VH: EVQLVESGGGLVTPGGSLRLSCAASGFTFSTYSMNWVRQAPGKGLEWVSSISGSSGHIYYADSVRGRFTISRDNAKNSLYLQMNSLRAEDTAVYYCASMHYYYYLDVWGKGTTVTVSS
VL: QAVVTQESALTTSPGETVTLTCRSSTGTVTTSNYVTWVQEKPDHLFTGLIGATNNRAPGVPARFSGSLIGDKAALTITGAQTEDEAIYFCALWYSNHWVFGGGTKLTVL
For the molecule B2, in experiment [1], the EC50 amounted to 1.85 nM. Further, the Kd in experiment [2] came out at 3.18 nM.

B3: CTHRC1S-M14 (antibody, V domains shown)
VH: EVQVVESGGGLVQPGGSLRLSCAASRFTFSNYWMSWVRQAPGRGLEWVANIKQDGSEKYYVDSVKGRFTISRDNAKNSLYLQMNSLRAEDTAVYYCAREGGYCSDTRCFFYMDVWGKGTTVTVSS
VL: DIQMTQSPSTLSASVGDRVTITCRASQSIISWLAWYQQKPGKAPKLLIYKASSLEGGVPSRFSGSGSGTDFTLTISSLQPDDFATYYCQQYNSYSRTFGQGTTVEIK
Turning to B3, the EC50 in experiment [1] is 0.05 nM. In experiment [2], this molecule gave an equilibrium dissociation constant (Kd) of under 0.001 nM.
